# In US20150139990A1 (DAINIPPON SUMITOMO PHARMA, published 2015):
# T1: human CD81 mutant V135A (human, UniProt P60033 1-236, limits assumed)
# T1 construct: as m30; not shown: C-terminal V5 and 6xHis tags
# T1 sequence: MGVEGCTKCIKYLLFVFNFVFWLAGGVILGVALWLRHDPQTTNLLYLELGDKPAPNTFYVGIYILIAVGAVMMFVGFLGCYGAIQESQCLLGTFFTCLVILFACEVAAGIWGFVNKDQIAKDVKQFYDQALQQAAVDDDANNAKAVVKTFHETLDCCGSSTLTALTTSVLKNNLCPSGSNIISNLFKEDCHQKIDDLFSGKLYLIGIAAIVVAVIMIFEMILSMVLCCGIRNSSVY
# T2: human CD81 mutant L165A (human, UniProt P60033 1-236, limits assumed)
# T2 construct: as m30; not shown: C-terminal V5 and 6xHis tags
# T2 sequence: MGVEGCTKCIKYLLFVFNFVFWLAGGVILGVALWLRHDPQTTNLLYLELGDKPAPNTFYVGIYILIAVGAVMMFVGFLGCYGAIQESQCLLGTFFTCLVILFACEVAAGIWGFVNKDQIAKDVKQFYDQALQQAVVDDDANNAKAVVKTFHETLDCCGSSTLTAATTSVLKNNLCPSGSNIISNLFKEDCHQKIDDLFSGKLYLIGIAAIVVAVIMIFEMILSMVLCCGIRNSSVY
# T3: human CD81 mutant D137A (human, UniProt P60033 1-236, limits assumed)
# T3 construct: as m30; not shown: C-terminal V5 and 6xHis tags
# T3 sequence: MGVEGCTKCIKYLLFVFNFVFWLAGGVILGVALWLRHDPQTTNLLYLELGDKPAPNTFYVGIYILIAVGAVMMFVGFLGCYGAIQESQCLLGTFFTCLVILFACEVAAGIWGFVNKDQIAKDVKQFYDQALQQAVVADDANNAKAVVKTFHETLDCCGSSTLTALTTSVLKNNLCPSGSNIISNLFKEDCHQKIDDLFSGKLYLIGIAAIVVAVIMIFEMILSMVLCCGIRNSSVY
# T4: human CD81 mutant V169A (human, UniProt P60033 1-236, limits assumed)
# T4 construct: as m30; not shown: C-terminal V5 and 6xHis tags
# T4 sequence: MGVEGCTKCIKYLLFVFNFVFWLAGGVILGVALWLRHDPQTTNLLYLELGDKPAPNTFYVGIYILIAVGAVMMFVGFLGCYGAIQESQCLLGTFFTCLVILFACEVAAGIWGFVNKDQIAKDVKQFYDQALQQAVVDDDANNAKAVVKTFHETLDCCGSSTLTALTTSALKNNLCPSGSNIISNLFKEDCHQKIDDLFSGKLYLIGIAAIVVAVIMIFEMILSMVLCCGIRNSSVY
# T5: human CD81 mutant A164T (human, UniProt P60033 1-236, limits assumed)
# T5 construct: as m30; not shown: C-terminal V5 and 6xHis tags
# T5 sequence: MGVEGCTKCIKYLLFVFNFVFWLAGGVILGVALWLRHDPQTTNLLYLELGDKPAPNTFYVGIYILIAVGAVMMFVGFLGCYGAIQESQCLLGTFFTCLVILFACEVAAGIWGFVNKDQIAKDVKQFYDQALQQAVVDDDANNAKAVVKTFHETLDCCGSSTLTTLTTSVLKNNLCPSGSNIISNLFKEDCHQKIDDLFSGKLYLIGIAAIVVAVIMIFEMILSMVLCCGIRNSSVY
# T6: human CD81 mutant D137E (human, UniProt P60033 1-236, limits assumed)
# T6 construct: as m30; not shown: C-terminal V5 and 6xHis tags
# T6 sequence: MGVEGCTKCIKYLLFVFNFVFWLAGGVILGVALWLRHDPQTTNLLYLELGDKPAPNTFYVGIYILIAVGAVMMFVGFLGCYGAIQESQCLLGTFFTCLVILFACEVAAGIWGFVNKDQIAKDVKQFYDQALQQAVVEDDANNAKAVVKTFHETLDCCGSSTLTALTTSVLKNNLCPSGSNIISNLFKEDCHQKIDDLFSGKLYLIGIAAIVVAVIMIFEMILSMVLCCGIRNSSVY
# T7: human CD81 mutant V169L (human, UniProt P60033 1-236, limits assumed)
# T7 construct: as m30; not shown: C-terminal V5 and 6xHis tags
# T7 sequence: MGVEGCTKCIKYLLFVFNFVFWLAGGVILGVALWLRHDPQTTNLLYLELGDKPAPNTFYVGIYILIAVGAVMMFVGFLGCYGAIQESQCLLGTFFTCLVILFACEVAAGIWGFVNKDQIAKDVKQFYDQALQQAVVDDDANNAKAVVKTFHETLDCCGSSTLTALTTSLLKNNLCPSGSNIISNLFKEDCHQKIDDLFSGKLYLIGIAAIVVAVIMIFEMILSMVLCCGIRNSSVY
# T8: human CD81 mutant A164V (human, UniProt P60033 1-236, limits assumed)
# T8 construct: as m30; not shown: C-terminal V5 and 6xHis tags
# T8 sequence: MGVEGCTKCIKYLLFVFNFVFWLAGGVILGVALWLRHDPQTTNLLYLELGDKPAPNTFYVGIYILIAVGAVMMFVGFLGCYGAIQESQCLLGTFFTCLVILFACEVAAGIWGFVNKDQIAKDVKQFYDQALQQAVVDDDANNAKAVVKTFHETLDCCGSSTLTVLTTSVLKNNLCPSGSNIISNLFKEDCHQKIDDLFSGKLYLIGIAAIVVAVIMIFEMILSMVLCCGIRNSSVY
# T9: human CD81 on CD81-expressing cells (Jurkat E6.1, human PBMC, Ramos) (human, UniProt P60033 1-236)
# T9 sequence: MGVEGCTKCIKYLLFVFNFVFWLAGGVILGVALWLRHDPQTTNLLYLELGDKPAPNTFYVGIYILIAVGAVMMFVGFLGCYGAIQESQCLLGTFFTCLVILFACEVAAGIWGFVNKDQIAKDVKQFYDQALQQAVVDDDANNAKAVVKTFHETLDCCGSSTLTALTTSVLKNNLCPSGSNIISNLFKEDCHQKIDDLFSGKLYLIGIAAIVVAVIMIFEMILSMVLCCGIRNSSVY
# T10: human CD81 mutant N172A (human, UniProt P60033 1-236, limits assumed)
# T10 construct: as m30; not shown: C-terminal V5 and 6xHis tags
# T10 sequence: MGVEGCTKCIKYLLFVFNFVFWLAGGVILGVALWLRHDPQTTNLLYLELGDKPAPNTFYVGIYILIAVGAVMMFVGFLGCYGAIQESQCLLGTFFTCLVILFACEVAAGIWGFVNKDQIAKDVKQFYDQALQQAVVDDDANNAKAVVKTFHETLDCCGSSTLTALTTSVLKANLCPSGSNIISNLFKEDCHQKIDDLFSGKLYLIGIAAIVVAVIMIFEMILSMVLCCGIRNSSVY
# T11: human CD81 mutant G158S (human, UniProt P60033 1-236, limits assumed)
# T11 construct: as m30; not shown: C-terminal V5 and 6xHis tags
# T11 sequence: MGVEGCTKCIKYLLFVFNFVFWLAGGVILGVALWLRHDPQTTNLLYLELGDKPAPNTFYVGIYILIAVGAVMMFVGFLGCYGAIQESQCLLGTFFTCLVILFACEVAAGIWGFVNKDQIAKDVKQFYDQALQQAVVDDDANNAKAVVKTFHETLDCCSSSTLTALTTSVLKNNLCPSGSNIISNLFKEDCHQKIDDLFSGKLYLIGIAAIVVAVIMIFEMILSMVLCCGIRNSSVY
# T12: human CD81 mutant V135L (human, UniProt P60033 1-236, limits assumed)
# T12 construct: as m30; not shown: C-terminal V5 and 6xHis tags
# T12 sequence: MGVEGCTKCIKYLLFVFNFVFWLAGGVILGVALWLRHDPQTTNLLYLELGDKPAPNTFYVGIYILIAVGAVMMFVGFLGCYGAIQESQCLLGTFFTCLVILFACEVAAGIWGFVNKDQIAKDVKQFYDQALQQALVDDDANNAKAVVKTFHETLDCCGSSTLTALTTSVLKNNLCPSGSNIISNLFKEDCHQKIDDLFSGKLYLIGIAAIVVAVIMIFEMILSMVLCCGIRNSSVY
# T13: human CD81 mutant H151R (human, UniProt P60033 1-236, limits assumed)
# T13 construct: as m30; also called H151B; not shown: C-terminal V5 and 6xHis tags
# T13 sequence: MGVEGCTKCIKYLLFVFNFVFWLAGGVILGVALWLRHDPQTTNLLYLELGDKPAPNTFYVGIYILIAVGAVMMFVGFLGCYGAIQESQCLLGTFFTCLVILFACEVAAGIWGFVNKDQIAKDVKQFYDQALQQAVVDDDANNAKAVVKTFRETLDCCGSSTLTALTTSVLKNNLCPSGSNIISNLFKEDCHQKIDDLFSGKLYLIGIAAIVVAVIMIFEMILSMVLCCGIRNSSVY
# How the values were obtained:
# human CD81 mutant V135A = target: T1, human CD81 mutant V135A; assay: ELISA
# human CD81 mutant L165A = target: T2, human CD81 mutant L165A; assay: ELISA
# human CD81 mutant D137A = target: T3, human CD81 mutant D137A; assay: ELISA
# human CD81 mutant V169A = target: T4, human CD81 mutant V169A; assay: ELISA
# human CD81 mutant A164T = target: T5, human CD81 mutant A164T; assay: ELISA
# human CD81 mutant D137E = target: T6, human CD81 mutant D137E; assay: ELISA
# human CD81 mutant V169L = target: T7, human CD81 mutant V169L; assay: ELISA
# human CD81 mutant A164V = target: T8, human CD81 mutant A164V; assay: ELISA
# [1] = target: T9, human CD81 on CD81-expressing cells …; assay: cell-based or functional assay
# human CD81 mutant N172A = target: T10, human CD81 mutant N172A; assay: ELISA
# human CD81 mutant G158S = target: T11, human CD81 mutant G158S; assay: ELISA
# human CD81 mutant V135L = target: T12, human CD81 mutant V135L; assay: ELISA
# human CD81 mutant H151R = target: T13, human CD81 mutant H151R; assay: ELISA
# [2] = target: T9, human CD81 on CD81-expressing cells …; assay: FMAT on CD81-expressing and non-expressing cells
# Excerpt: A complete human antibody library n-CoDeR (Nature Biotechnol. 18: 852-856, 2000; WO98/32845) was screened for specific binding with human CD81, using human CD81 protein and human CD9 protein having a homology with CD81, or human CD81-expressing and -non-expressing cells to obtain human antibody fragments (scFv) specifically binding with human CD81. First, phages bound to biotinylated CD81 protein in the presence of competitive CD9 protein were recovered using streptoavidin-labeled magnetic beads. Unbound phages were washed out and the bound phages were eluted by trypsin treatment. Panning was carried out three times, and the selected phage library was expressed as an antibody fragment in E. coli. […] FMAT is performed by adding antibody fragments to the cells immobilized on the wells of 384-well culture plate, and detecting its binding using a fluorescent-labeled anti-scFv antibody. As a result of the screening, two human CD81-specific human antibody fragments were selected. The nucleotide sequences (scFv-002-A07: SEQ ID NO:33, scFv-005-001: SEQ ID NO:35) and the deduced amino acid sequences (scFv-002-A07: SEQ ID NO:34, scFv-005-001: SEQ ID NO:36) of these fragments were determined by sequencing.
relative binding affinity (human CD81 mutant V135A) [%],relative binding affinity (human CD81 mutant L165A) [%],relative binding affinity (human CD81 mutant D137A) [%],relative binding affinity (human CD81 mutant V169A) [%],relative binding affinity (human CD81 mutant A164T) [%],relative binding affinity (human CD81 mutant D137E) [%],relative binding affinity (human CD81 mutant V169L) [%],relative binding affinity (human CD81 mutant A164V) [%],Jurkat chemotaxis (% of control IgG4) at 0.001 µg/mL [1] [%],Jurkat chemotaxis (% of control IgG4) at 0.01 µg/mL [1] [%],Jurkat chemotaxis (% of control IgG4) at 0.1 µg/mL [1] [%],Jurkat chemotaxis (% of control IgG4) at 1 µg/mL [1] [%],Jurkat chemotaxis (% of control IgG4) at 10 µg/mL [1] [%],relative binding affinity (human CD81 mutant N172A) [%],relative binding affinity (human CD81 mutant G158S) [%],relative binding affinity (human CD81 mutant V135L) [%],relative binding affinity (human CD81 mutant H151R) [%],binding result [2],Binder
< 20,< 20,< 20,< 20,< 20,< 20,< 20,< 20,106,104,31,-5,-4,,,,,,"002-C02 (antibody, human IgG4 S228P, lambda, V domains shown, IgG4 S228P) VH: EVQLLESGGGLVQPGGSLRLSCAASGFTFSSNYMSWVRQAPGKGLEWVSYISSSSSYTDYADTVKGRFTISRDNSKNTLYLQMNSLRAEDTAVYYCASYSYGRDSFDYWGQGTLVTVSS VL: QSVLTQPPSASGTPGQRVTISCTGSTSNIGAGYDTHWYQQLPGTAPKLLIYGNSNRPSGVPDRFSGSKSGTSASLAISGLRTEDEADYYCQSYDTNLSVWVFGGGTKLTVLG"
,,,< 20,,,,,104,93,15,3,3,< 20,,,,,"003-A10 (antibody, human IgG4 S228P, lambda, V domains shown, IgG4 S228P) VH: EVQLLESGGGLVQPGGSLRLSCAASGFTFSSNYMSWVRQAPGKGLEWVSYISSSSTYTDYADSVKGRFTISRDNSKNTLYLQMNSLRAEDTAVYYCARYSYGRDTFDYWGQGTLVTVSS VL: QSVLTQPFSASGTPGQRVTISCTGSTSNIGAGYDTHWYQQLPGTAPKLLIYGNSNRPSGVPDRFSGSKSGTSASLAISGLRSEDEADYYCQSYDTNLSVWVFGGGTKLTVLG"
< 20,< 20,< 20,< 20,< 20,< 20,< 20,< 20,80,79,21,-3,-4,,< 20,< 20,< 20,,"003-F08 (antibody, human IgG4 S228P, lambda, V domains shown, IgG4 S228P) VH: EVQLLESGGGLVQPGGSLRLSCAASGFTFSSNYMSWVRQAPGKGPEWVSYISSSSTYADYADSVKGRFTISRDNSKNTLYLQMNSLRAEDTAVYYCARYSYGRDNFDYWGQGTLVTVSS VL: QSVLTQPSSASGTPGQRVTISCTGSTSNIGAGYDTHWYQQLPGTAPKLLIYGNSNRPSGVPDRFSGSKSGTSASLAISGLRSEDEADYYCQSYDTNLSAWVFGGGTKLTVLG"
,,,,,,,,,,,,,,,,,binds,"scFv-002-A07 (scFv, antibody fragment from the n-CoDeR library, expressed in E. coli) scFv: EVQLLESGGGLVQPGGSLRLSCAASGFTFSSNYMSWVRQAPGKGLEWVSYISSSSTYTDYADSVKGRFTISRDNSKNTLYLQMNSLRAEDTAVYYCARYSYGRDNFDYWGQGTLVTVSSGGGGSGGGGSGGGGSQSVLTQPPSASGTPGQRVTISCTGSTSNIGAGYDTHWYQQLPGTAPKLLIYGNSNRPSGVPDRFSGSKSGTSASLAISGLRSEDEADYYCQSYDTNLSVWVFGGGTKLTVLGEQKLISEEDLSGSAAAHHHHHH"
